Kd data for 1 molecule are collected here from patent US20180030098A1 (NAVIGO PROTEINS, published 2018).

The test concerns the target T1, Recombinant human EGFR-Fc Chimera (R&D Systems, catalog no. 344-ER-050) (human, UniProt P00533 25-645).
T1 construct: range 1-645; Bought reagent; Immobilised on the CM5 chip for SPR; also called hEGFR-Fc; not shown: Fc region of human IgG1, fused at the C-terminus
Briefly: SPR (Biacore) on immobilised hEGFR-Fc. A general note: In SPR one partner is held on a chip, and binding of the other changes the refractive index at the surface.

B1: Affilin 138838 (designed binder)
chain: MQIFVYTNTGKTITLEVEPSDTIENVKAKIQDKEGIPPDQQRLIWAGKQLEDGRTLSDYNIRNPDILHLVLRLRAAGIGMQIFVHTITGKTITLEVEPSDTIENVKAKIQDKEGIPPDQQRLIWAGKQLEDGRTLSDYNIEGERDLHLVLRLRAA
notes: Affilin of two ubiquitin moieties with PDI motif
For orientation: Kd means the constant that tells how readily two partners part at equilibrium. B1: the Kd amounted to 615 nM.
